The target of the first data set is T1, FLP recombinase (native yeast) (Saccharomyces cerevisiae) (UniProt P03870).
T1 sequence: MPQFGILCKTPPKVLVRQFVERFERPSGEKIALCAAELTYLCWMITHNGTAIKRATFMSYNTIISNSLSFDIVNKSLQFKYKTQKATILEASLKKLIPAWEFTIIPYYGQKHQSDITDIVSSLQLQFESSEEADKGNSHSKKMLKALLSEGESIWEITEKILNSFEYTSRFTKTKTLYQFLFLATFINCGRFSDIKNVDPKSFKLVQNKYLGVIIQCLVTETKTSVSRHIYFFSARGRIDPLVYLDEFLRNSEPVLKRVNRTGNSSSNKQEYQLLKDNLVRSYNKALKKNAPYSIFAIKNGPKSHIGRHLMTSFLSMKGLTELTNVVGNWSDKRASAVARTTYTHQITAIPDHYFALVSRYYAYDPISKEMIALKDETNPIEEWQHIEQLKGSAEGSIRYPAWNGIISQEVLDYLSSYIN
As to the kind of experiment: cleavage_in_vitro. As to conditions: 30 C, 10 mM MgCl2.
For “AGTTCCTATACTGAAAAGAGAATAGGAACT (double strand) [FRT78]”, the activity (% excision efficiency relative to FRT1) was determined as 60.

With “AGTTCCTATACTCTTTTGAGAATAGGAACT (double strand) [FRT5]”, the activity (% excision efficiency relative to FRT1) was determined as 15.

In the case of “AGTTCCTATACTGATTGGAGAATAGGAACT (double strand) [FRT65]”, the activity (% excision efficiency relative to FRT1) came out at 18.

For the sequence “AGTTCCTATACTCTCTTGAGAATAGGAACT (double strand) [FRT45]”, the activity (% excision efficiency relative to FRT1) is 5.

In the case of “AGTTCCTATACTTCCATAAGAATAGGAACT (double strand) [FRT76]”, the activity (% excision efficiency relative to FRT1) is 30.

In the case of “AGTTCCTATACTCTCTAGAGAATAGGAACT (double strand) [FRT89]”, the activity (% excision efficiency relative to FRT1) was found to be 39.

“AGTTCCTATACTTTTCTAAGAATAGGAACT (double strand) [FRT57]”: the activity (% excision efficiency relative to FRT1) was determined as 82.

On to “AGTTCCTATACTGAGAGAAGAATAGGAACT (double strand) [FRT74]”, for which the activity (% excision efficiency relative to FRT1) is 5.

With “AGTTCCTATACTTTCTGGAGAATAGGAACT (double strand) [FRT87]”, the activity (% excision efficiency relative to FRT1) turned out to be 93.

Turning to “AGTTCCTATACTCCACAGAGAATAGGAACT (double strand) [FRT55]”, the activity (% excision efficiency relative to FRT1) amounted to 7.

As for “AGTTCCTATACTGTAATGAGAATAGGAACT (double strand) [FRT34]”, the activity (% excision efficiency relative to FRT1) worked out at 34.

With “AGTTCCTATACTTTCTTGAGAATAGGAACT (double strand) [FRT85]”, the activity (% excision efficiency relative to FRT1) was 116.

Consider “AGTTCCTATACTTTAGGTAGAATAGGAACT (double strand) [FRT62]”, for which the activity (% excision efficiency relative to FRT1) amounted to 72.

Turning to “AGTTCCTATACTCTATGTAGAATAGGAACT (double strand) [FRT12]”, the activity (% excision efficiency relative to FRT1) was 102.

Regarding “AGTTCCTATACTTCCGAGAGAATAGGAACT (double strand) [FRT43]”, the activity (% excision efficiency relative to FRT1) came out at 14.

Consider “AGTTCCTATACTATACAAAGAATAGGAACT (double strand) [FRT70]”, for which the activity (% excision efficiency relative to FRT1) came out at 25.

For “AGTTCCTATACTGTAAAAAGAATAGGAACT (double strand) [FRT53]”, the activity (% excision efficiency relative to FRT1) was 64.

As to “AGTTCCTATACTTTCTCGAGAATAGGAACT (double strand) [FRT86]”, the activity (% excision efficiency relative to FRT1) was found to be 12.

As for “AGTTCCTATACTTTTGTGAGAATAGGAACT (double strand) [FRT69]”, the activity (% excision efficiency relative to FRT1) worked out at 9.

The data set is the same for the next values; noted with them: reference pair; 25 mM Tris pH 7.5, 10 mM MgCl2, 5 mM DTT, 30 C 30 min.
Consider “AGTTCCTATACTTTCTAGAGAATAGGAACT (double strand) [FRT1 (wild-type minimal FRT)]”, for which the activity (% excision efficiency relative to FRT1) stood at 100.

The target of another data set is T1, FLP recombinase (native yeast) (Saccharomyces cerevisiae).
Assay: not given
As to conditions: in vitro co-integration FRT1+FRT1, 10 mM MgCl2, 5 mM DTT.
Consider “AGTTCCTATACTTTCTAGAGAATAGGAACT (double strand) [FRT1 (wild-type minimal FRT)]”, for which the activity (% co-integrants at 2 h) amounted to 1.03.

Staying with this data set, now noted: in vitro co-integration FRT5+FRT5, 10 mM MgCl2, 5 mM DTT.
With “AGTTCCTATACTCTTTTGAGAATAGGAACT (double strand) [FRT5]”, the activity (% co-integrants at 2 h) was found to be 0.09.

Still in this data set, the particulars now being: in vitro co-integration FRT6+FRT6, 10 mM MgCl2, 5 mM DTT.
For “AGTTCCTATACTTTTTGAAGAATAGGAACT (double strand) [FRT6]”, the activity (% co-integrants at 2 h) worked out at 0.27.

Source of the values: patent US20130052739.
